Biological target: T1, NPAS4 170X-Myc/FLAG (c.508C>T nonsense variant) (human, UniProt Q8IUM7-1 1-169)
T1 sequence (looked up): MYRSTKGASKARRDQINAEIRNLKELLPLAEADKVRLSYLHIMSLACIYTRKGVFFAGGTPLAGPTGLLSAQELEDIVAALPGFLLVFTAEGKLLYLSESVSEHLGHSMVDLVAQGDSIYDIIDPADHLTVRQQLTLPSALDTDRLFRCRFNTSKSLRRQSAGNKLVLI
Test: cell-based or functional assay

6xCME firefly luciferase reporter gene activity in HEK293T (dual luciferase; ARNT2-FLAG as partner; printed for ARNT and ARNT2 alike): > 200 fold decrease relative to wildtype
B1: ARNT2-Strep (natural protein)
chain: not shown

From publication PMC7987981, “Molecular characterisation of rare loss-of-function NPAS3 and NPAS4 variants identified in individuals with neurodevelopmental disorders” (Scientific Reports, 2021)
